Laboratory results: PMC10514999, “The PyPIF5-PymiR156a-PySPL9-PyMYB114/MYB10 module regulates light-induced anthocyanin biosynthesis in red pear”
Positions count from the first letter of the chain named.

Tests used:
[1] = target: T1, PyPIF5 (Pyrus (red pear; cultivar of the cloned …, UniProt A0A5N5GDZ9 1-552); assay: competition; unlabeled competitor of N1; binding gradually reduced; EMSA: 500 ng PyPIF5-His, 20 nM biotin probe, 20 uL with 4 uL 5x EMSA/Gel-Shift buffer (Beyotime GS009), 20 min, room temperature (~25 C); salt and pH not stated; conditions: protein: recombinant; tags: His (pColdTF vector); chain copies: 2; as N1, 37/36 nt as printed
T1 sequence: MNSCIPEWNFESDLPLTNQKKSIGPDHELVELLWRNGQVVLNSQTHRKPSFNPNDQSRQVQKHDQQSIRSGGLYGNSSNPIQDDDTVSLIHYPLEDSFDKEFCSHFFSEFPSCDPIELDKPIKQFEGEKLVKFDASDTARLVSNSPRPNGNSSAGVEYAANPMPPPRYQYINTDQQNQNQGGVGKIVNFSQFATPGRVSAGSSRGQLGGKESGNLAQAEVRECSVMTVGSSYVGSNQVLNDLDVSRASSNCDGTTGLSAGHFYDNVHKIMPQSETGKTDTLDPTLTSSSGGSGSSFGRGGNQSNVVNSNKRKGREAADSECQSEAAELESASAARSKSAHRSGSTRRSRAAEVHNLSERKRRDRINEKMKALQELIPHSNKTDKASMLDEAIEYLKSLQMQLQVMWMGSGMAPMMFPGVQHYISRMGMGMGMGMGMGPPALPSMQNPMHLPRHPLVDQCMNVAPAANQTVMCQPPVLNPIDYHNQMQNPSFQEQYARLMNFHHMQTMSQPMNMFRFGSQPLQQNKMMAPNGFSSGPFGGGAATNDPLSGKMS

[2] = target: T1, PyPIF5; assay: EMSA; mutant probe, G-box destroyed; Methods also describe it as a competitor; EMSA: 500 ng PyPIF5-His, 20 nM biotin probe, 20 uL with 4 uL 5x EMSA/Gel-Shift buffer (Beyotime GS009), 20 min, room temperature (~25 C); salt and pH not stated; conditions: protein: recombinant; tags: His (pColdTF vector); chain copies: 2; label: biotin; blunt

B1: Cold-probe (dsDNA)
DNA 1: TTGTAAAGAACACGTACGTTACACGTACGCTGAAACA
DNA 2: TGTTTCAGCGTAGTGTAACGTACGTGTTCTTTACAA
B1: binds [1].

B2: Bio-Mut-probe (dsDNA)
DNA 1: TTGTAAAGAACAGATACGTTACACTACGCTGAAACA
DNA 2: B1 DNA 2 with C23T, G24C
B2: no binding [2].
